Test results as given in the Human Domainome abundance scans (Beltran et al. 2025).
± gives the uncertainty stated by the source.

B1: POU domain, class 2, transcription factor 1, residues 285 to 354; numbered along this chain, P14859 (parent)
chain: LEELEQFAKTFKQRRIKLGFTQGDVGLAMGKLYGNDFSQTTISRFEALNLSFKNMCKLKPLLEKWLNDAE

Variants of: B1
Assay: abundance fitness (aPCA) (normalised: wild type 0, dead -1); higher = more abundant; growth selection in yeast, the domain comes from the species named
Conditions: Homo sapiens

Variant | abundance fitness
LEELEQFAKTFKQRRIKLGFTQGDVGLAMGKLYGNDFSQTTISRFEALNLSFKNMCKLKPLLEKWLNDAS [E70S] | 0.076 ± 0.22
LEELEQFAKTFKQRRIKLGFTQGDVGLAMGKLYGNDFSQTTISRFEALNLSFKNMCKLKPLLEKWLNDAI [E70I] | -0.048 ± 0.16
LEELEQFAKTFKQRRIKLGFTQGDVGLAMGKLYGNDFSQTTISRFEALNLSFKNMCKLKPLLEKWLNDAD [E70D] | -0.029 ± 0.031
LEELEQFAKTFKQRRIKLGFTQGDVGLAMGKLYGNDFSQTTISRFEALNLSFKNMCKLKPLLEKWLNDAP [E70P] | -0.349 ± 0.23
LEELEQFAKTFKQRRIKLGFTQGDVGLAMGKLYGNDFSQTTISRFEALNLSFKNMCKLKPLLEKWLNDAG [E70G] | -0.13 ± 0.26
LEELEQFAKTFKQRRIKLGFTQGDVGLAMGKLYGNDFSQTTISRFEALNLSFKNMCKLKPLLEKWLNDAV [E70V] | -0.083 ± 0.087
LEELEQFAKTFKQRRIKLGFTQGDVGLAMGKLYGNDFSQTTISRFEALNLSFKNMCKLKPLLEKWLNDAK [E70K] | 0.011 ± 0.12
LEELEQFAKTFKQRRIKLGFTQGDVGLAMGKLYGNDFSQTTISRFEALNLSFKNMCKLKPLLEKWLNDAR [E70R] | -0.36 ± 0.32
LEELEQFAKTFKQRRIKLGFTQGDVGLAMGKLYGNDFSQTTISRFEALNLSFKNMCKLKPLLEKWLNDEE [A69E] | 0.016 ± 0.04
LEELEQFAKTFKQRRIKLGFTQGDVGLAMGKLYGNDFSQTTISRFEALNLSFKNMCKLKPLLEKWLNDVE [A69V] | 0.014 ± 0.024
LEELEQFAKTFKQRRIKLGFTQGDVGLAMGKLYGNDFSQTTISRFEALNLSFKNMCKLKPLLEKWLNDLE [A69L] | -0.064 ± 0.02
LEELEQFAKTFKQRRIKLGFTQGDVGLAMGKLYGNDFSQTTISRFEALNLSFKNMCKLKPLLEKWLNDSE [A69S] | -0.004 ± 0.018
LEELEQFAKTFKQRRIKLGFTQGDVGLAMGKLYGNDFSQTTISRFEALNLSFKNMCKLKPLLEKWLNDIE [A69I] | -0.027 ± 0.021
LEELEQFAKTFKQRRIKLGFTQGDVGLAMGKLYGNDFSQTTISRFEALNLSFKNMCKLKPLLEKWLNDTE [A69T] | -0.012 ± 0.019
LEELEQFAKTFKQRRIKLGFTQGDVGLAMGKLYGNDFSQTTISRFEALNLSFKNMCKLKPLLEKWLNDCE [A69C] | -0.001 ± 0.022
LEELEQFAKTFKQRRIKLGFTQGDVGLAMGKLYGNDFSQTTISRFEALNLSFKNMCKLKPLLEKWLNDNE [A69N] | -0.04 ± 0.023
LEELEQFAKTFKQRRIKLGFTQGDVGLAMGKLYGNDFSQTTISRFEALNLSFKNMCKLKPLLEKWLNDWE [A69W] | -0.078 ± 0.027
LEELEQFAKTFKQRRIKLGFTQGDVGLAMGKLYGNDFSQTTISRFEALNLSFKNMCKLKPLLEKWLNDYE [A69Y] | -0.038 ± 0.021
LEELEQFAKTFKQRRIKLGFTQGDVGLAMGKLYGNDFSQTTISRFEALNLSFKNMCKLKPLLEKWLNDME [A69M] | 0.003 ± 0.02

Variant | abundance fitness
LEELEQFAKTFKQRRIKLGFTQGDVGLAMGKLYGNDFSQTTISRFEALNLSFKNMCKLKPLLEKWLNDQE [A69Q] | 0.057 ± 0.029
LEELEQFAKTFKQRRIKLGFTQGDVGLAMGKLYGNDFSQTTISRFEALNLSFKNMCKLKPLLEKWLNDHE [A69H] | -0.04 ± 0.028
LEELEQFAKTFKQRRIKLGFTQGDVGLAMGKLYGNDFSQTTISRFEALNLSFKNMCKLKPLLEKWLNDRE [A69R] | 0.013 ± 0.022
LEELEQFAKTFKQRRIKLGFTQGDVGLAMGKLYGNDFSQTTISRFEALNLSFKNMCKLKPLLEKWLNDKE [A69K] | 0.004 ± 0.024
LEELEQFAKTFKQRRIKLGFTQGDVGLAMGKLYGNDFSQTTISRFEALNLSFKNMCKLKPLLEKWLNDPE [A69P] | -0.112 ± 0.023
LEELEQFAKTFKQRRIKLGFTQGDVGLAMGKLYGNDFSQTTISRFEALNLSFKNMCKLKPLLEKWLSDAE [N67S] | -0.054 ± 0.27
LEELEQFAKTFKQRRIKLGFTQGDVGLAMGKLYGNDFSQTTISRFEALNLSFKNMCKLKPLLEKWLDDAE [N67D] | 0.024 ± 0.19
LEELEQFAKTFKQRRIKLGFTQGDVGLAMGKLYGNDFSQTTISRFEALNLSFKNMCKLKPLLEKYLNDAE [W65Y] | -0.275 ± 0.25
LEELEQFAKTFKQRRIKLGFTQGDVGLAMGKLYGNDFSQTTISRFEALNLSFKNMCKLKPLLEKGLNDAE [W65G] | -0.555 ± 0.033
LEELEQFAKTFKQRRIKLGFTQGDVGLAMGKLYGNDFSQTTISRFEALNLSFKNMCKLKPLLEKRLNDAE [W65R] | -0.753 ± 0.035
LEELEQFAKTFKQRRIKLGFTQGDVGLAMGKLYGNDFSQTTISRFEALNLSFKNMCKLKPLLEKQLNDAE [W65Q] | -0.594 ± 0.046
LEELEQFAKTFKQRRIKLGFTQGDVGLAMGKLYGNDFSQTTISRFEALNLSFKNMCKLKPLLEKNLNDAE [W65N] | -1.05 ± 0.31
LEELEQFAKTFKQRRIKLGFTQGDVGLAMGKLYGNDFSQTTISRFEALNLSFKNMCKLKPLLEKMLNDAE [W65M] | -0.22 ± 0.073
LEELEQFAKTFKQRRIKLGFTQGDVGLAMGKLYGNDFSQTTISRFEALNLSFKNMCKLKPLLEKFLNDAE [W65F] | 0.009 ± 0.18
LEELEQFAKTFKQRRIKLGFTQGDVGLAMGKLYGNDFSQTTISRFEALNLSFKNMCKLKPLLEKELNDAE [W65E] | -0.825 ± 0.081
LEELEQFAKTFKQRRIKLGFTQGDVGLAMGKLYGNDFSQTTISRFEALNLSFKNMCKLKPLLEKDLNDAE [W65D] | -0.968 ± 0.17
LEELEQFAKTFKQRRIKLGFTQGDVGLAMGKLYGNDFSQTTISRFEALNLSFKNMCKLKPLLEKPLNDAE [W65P] | -0.693 ± 0.086
LEELEQFAKTFKQRRIKLGFTQGDVGLAMGKLYGNDFSQTTISRFEALNLSFKNMCKLKPLLEKKLNDAE [W65K] | -0.961 ± 0.11
LEELEQFAKTFKQRRIKLGFTQGDVGLAMGKLYGNDFSQTTISRFEALNLSFKNMCKLKPLLEKTLNDAE [W65T] | -0.294 ± 0.045
